Laboratory results from patent US20070280881A1.
pKd: −log10 of the molar value.

Target: TAG-72 (tumor associated antigen TAG-72) (human)
Experiment: binding data (text calls it ED50), method not stated; ELISA on TAG-72 coated plates per Example 7

## CC49.ΔCH2 [gly/ser] (domain deleted CC49 with Gly/Ser spacer) (antibody)
  pKd: 8.74

## Humanized CC49 IgG (antibody)
  pKd: 8.60

## ddCC49, no spacer (huCC49.ΔCH2, unfractionated mixture of 120 kDa and 240 kDa forms) (antibody)
  pKd: 9.10
